Laboratory results taken from PMC8188212, “Multi‐Arm PEG/Peptidomimetic Conjugate Inhibitors of DR6/APP Interaction Block Hematogenous Tumor Cell Extravasation” (Advanced Science, 2021).
Square brackets hold non-standard residues; d marks the D form. Side chains are listed from the residue outwards. Ends that are not written are not given here. maleimide = maleimide: 4-arm PEG5k maleimide reacting with the C-terminal Cys thiol

How the values were obtained:
[1] = biological target: T1, DR6/APP interaction (B16F10, SGC-996, LLC1 TCs on DR6 protein coated plates) (Homo sapiens, UniProt O75509); experiment: Cell attachment of TCs to DR6-coated plates; assay type: cell-based; settings: 1 h at 37 °C, crystal violet, microplate reader, n = 3
T1 construct: His tag (inferred from RED-tris-NTA labelling of the same purchased protein in the MST assay); purchased Sino Biology, Inc. (Shanghai, China); host or cells: DR6 coated on 96-well plates; tumour cells B16F10, SGC-996, LLC1 carry endogenous APP
T1 sequence (O75509 42-349 limits assumed): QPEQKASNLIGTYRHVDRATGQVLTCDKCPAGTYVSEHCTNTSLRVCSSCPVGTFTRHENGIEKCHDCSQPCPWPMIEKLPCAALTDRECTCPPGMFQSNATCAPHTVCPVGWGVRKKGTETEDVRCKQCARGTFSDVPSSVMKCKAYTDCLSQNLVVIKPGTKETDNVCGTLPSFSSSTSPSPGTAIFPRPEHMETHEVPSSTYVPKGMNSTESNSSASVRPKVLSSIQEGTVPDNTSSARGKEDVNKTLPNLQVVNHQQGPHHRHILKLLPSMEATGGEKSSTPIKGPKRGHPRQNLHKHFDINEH
Method: DR6 protein in 50 µL PBS (50 × 10^–9 M) was added into 96‐well plates. The 96‐well plates were incubated for 2 h at 37 °C, followed by drying overnight at 4 °C. Next day, the 96‐well plates were warmly washed three times with PBS, and then blocked by PBS containing 1% BSA for 1 h at 37 °C. The plates were washed three times with PBS. TCs were suspended in serum‐free DMEM at a density of 3 × 10^5 cells mL^–1; 50 µL of the cell suspension was added to wells coated with the DR6‐targeting peptides. Different concentrations of DR6‐targeting peptides or PBS were added into the plates. After incubation at 37 °C for 1 h, non‐adherent cells were gently washed away with PBS, fixed with 4% paraformaldehyde at room temperature for 30 min, washed, stained with 5% crystal violet 50 µL per well for 10 min, gently washed with PBS, and decolorized with 33% acetic acid. The attachment cell number was measured by a microplate reader.^[ ^53 ^]

[2] = DLS analysis of size in solution; assay type: physicochemical
Method: AHP‐DRI‐12 with additional Cys residue at the C‐terminal and 4‐arm PEG5k maleimide was dissolved in PBS (0.1 M, pH = 8) at a molar ratio of 8:1. The reaction mixture was stirred for 4 h at room temperature and then dialyzed in a Slide‐A‐Lyzer dialysis cassette (Thermo Fisher Scientific, Shanghai, China) (MWCO: 3500 Da) against water. The dialysate containing the pure product was lyophilized. The products were confirmed by nuclear magnetic resonance (^1H NMR) spectra using a Bruker Avance 500 (500 MHz) spectrometer (Beijing, China).

[3] = Biodistribution, ex vivo fluorescence imaging of organs; assay type: in vivo; settings: Cy7-labeled peptides, intravenous, mice
Method: To quantify the biodistribution, mice were intravenously injected with Cy7‐labeled peptides. Mice were sacrificed at 6, 12, and 24 h after injection. All organs were harvested and subjected to ex vivo fluorescence imaging.

[4] = In vivo safety analysis in healthy mice; parameters: species or system C57BL/6 mice; settings: intravenous
Method: For evaluating the toxicity of peptides in vivo, 6 week old healthy mice were intravenously injected with AHP‐DRI‐12 and PEG‐tAHP‐DRI (0.2 µg g^–1 AHP‐DRI‐12). After 2 and 15 days, mice were sacrificed and serum samples were collected for the biochemical analysis (ALT, AST, BRU, and URE). Tissue samples from various organs were collected for tissue sections. The tissue sections were analyzed by H&E staining and immunohistochemistry analysis.

DR6 protein = biological target: T2, DR6 protein (Homo sapiens, UniProt O75509); experiment: KD of DR6-targeting peptides for binding to DR6 protein by MST
T2 construct: purchased Sino Biology, Inc. (Shanghai, China)
T2 sequence (O75509 42-655): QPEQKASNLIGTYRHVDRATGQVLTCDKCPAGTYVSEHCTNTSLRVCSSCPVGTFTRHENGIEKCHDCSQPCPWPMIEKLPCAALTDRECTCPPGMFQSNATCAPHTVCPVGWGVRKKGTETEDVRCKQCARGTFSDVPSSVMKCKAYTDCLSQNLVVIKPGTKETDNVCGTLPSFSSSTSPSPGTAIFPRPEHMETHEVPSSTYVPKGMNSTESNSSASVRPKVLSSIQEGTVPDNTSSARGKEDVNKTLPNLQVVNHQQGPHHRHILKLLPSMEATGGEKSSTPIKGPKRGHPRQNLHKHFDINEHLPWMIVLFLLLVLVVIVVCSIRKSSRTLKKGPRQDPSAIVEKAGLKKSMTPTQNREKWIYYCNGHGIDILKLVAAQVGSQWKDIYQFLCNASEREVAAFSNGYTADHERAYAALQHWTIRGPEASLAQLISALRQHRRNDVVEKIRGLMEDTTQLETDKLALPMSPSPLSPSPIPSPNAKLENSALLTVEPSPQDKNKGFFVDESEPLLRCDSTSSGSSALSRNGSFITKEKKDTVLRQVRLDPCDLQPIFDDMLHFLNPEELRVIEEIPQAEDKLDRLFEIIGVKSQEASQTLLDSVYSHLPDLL
Method: For labeling DR6 protein with Red‐tris‐NTA second‐generation dye, equal volume of DR6 protein (200 × 10^–9 M) and dye (100 × 10^–9 M) were mixed. The solution was incubated for 30 min at room temperature and centrifuged for 10 min at 4 ℃ and 15 000 × g. The DR6 protein was labeled and ready for the binding assay. Prepare 25 µL of the DR6‐targeting peptides at 20 × 10^–6 M and add 10 µL of the PBS‐T into the PCR tubes 2–12. Transfer 20 µL DR6‐targeting peptides into the PCR tube 1 and then transfer 10 µL of the DR6‐targeting peptides from tube 1 to tube 2 with a pipette and mix by pipetting up and down multiple times. Transfer 10 µL to tube 3 and mix. Repeat the procedure for tube 4–12. Add 10 µL of labeled protein to each tube (1–12) and mix by pipetting. The final DR6 protein concentration was 50× 10^−9 M. Load the capillaries and measure the samples by NanoTemper Monolith NT.015.^[ ^51 , ^52 ^]

[5] = healthy C57BL/6 mice, day 2 or 15

PEG-tAHP-DRI: tetra-(D-retro-inverso isomer of AHP-12) substitued 4-arm PEG5k ([dP][dT][dT][dA][dD][dI][dT]C([maleimide-4‑arm PEG5k]); also: four peptides on one 4-arm PEG5k)
disruption of attachment between TCs and DR6-coated plates [1]: most obvious disruption of attachment
size distribution in solution (hydration dynamic radius, DLS) [2]: ≈ 10 nm
distribution in kidney and liver after 12 h [3]: much higher distribution in kidney and liver
distribution intensity within 6 h, compared with AHP-DRI-12 [3]: much lower distribution intensity
organ accumulation within 6 h after injection [3]: accumulate mostly in kidney and slightly in liver
apoptotic cells in tissues, TUNEL staining [4, 5]: no obvious increase in apoptotic cells
damage to vessels, CD31 staining [4, 5]: could not cause damage to the vessels
downstream signaling pathway of DR6 (p-RIPK1, p-IκB-α, caspase 8 staining) [4, 5]: could not be impacted
damage to liver or kidney, blood biochemical indexes (ALT, AST, BRU, URE) ([4]; healthy mice, 0.2 µg g^–1 AHP-DRI-12, sacrificed day 2 or day 15): could not cause any damage to liver or kidney
Kd (DR6 protein; RED-tris-NTA labeled DR6 protein, final 50 × 10^−9 M, PBS-T, main text and Figure 2B-D, read-out: KD): ~50 nM
binding affinity to DR6 relative to AHP-DRI-12 (DR6 protein; from KD values): almost fourfold greater binding affinity
